Laboratory results as given in the supplement of paper PMC12042874.
± gives the uncertainty stated by the source.

Assay: amyloid nucleation score (Sup35N fusion, yeast selection) (log enrichment); library NNK3; higher = more nucleation; inactive = no reads after selection
How it was run: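 In psi-negative yeast, Sup35N fusions carrying peptides of 20 random codons were induced with 100 μM copper sulfate for 24 hours. The cells then grew 7 days at 30°C on medium lacking adenine and uracil, and plasmid inserts from input and output were Illumina-sequenced, excluding sequences with under 100 input reads. Nucleation score is the DiMSum log enrichment of output over input reads, centred on the mode score of non-aggregating sequences.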

Row | Substance | amyloid nucleation score
1 | PKGEGIMISLFLDCTRLVNG | 2.11 ± 0.077
2 | SNHVWFDLFGEYDASCFCTV | inactive
3 | RKGHDVVAVYWADLHSSGIV | inactive
4 | SRVHPPLWIKCTVGMVPQTC | inactive
5 | NRFYVD | inactive
6 | AHLTSVYVKTPSFEINISNK | inactive
7 | NSNNSGTVKFRNIRLYSTSL | inactive
8 | NCRLEESGLVTVNCVGYWWD | inactive
9 | QNECLGHQNWLNVVLKVAMM | inactive
10 | VLVGDDCDRTVANVQ | inactive
11 | WCPSQDNFWQNFLF | -0.079 ± 0.23
12 | EGFPV | inactive
13 | LYNFRECTQTSFISFVCQLV | inactive
14 | FPSKCCANKSSYLGWTSLCW | inactive
15 | FTKSREWGFMDKPAINWVSC | inactive
16 | LYRAIHHNKFLESACLRYAL | inactive
17 | SEVTSRNHTGYSRSRLLGMY | inactive
18 | FLKCGRSVPGV | inactive
19 | GKISTRFRFFSVDETRPTIN | 1.18 ± 0.15
20 | RSNTPPGISLARPFYPKNRV | inactive
21 | HHKAEGAHVKITDLSFDVKS | inactive
22 | YRFRRDNLWCTWSSYMYMYC | inactive
23 | GDFYASGSPVKFVRVGMDEC | inactive
24 | HTWFNFVYEVRSNKLTP | inactive

Row | Substance | amyloid nucleation score
25 | PNHYSYQCALLKRSTEFRHA | inactive
26 | VSNCFTSLQT | inactive
27 | LNGSAHYRGCCLKRRTICWM | inactive
28 | VGHERTVSLQHCGRRLRWCW | inactive
29 | TSVSPRHLVSTSTMICSFAH | inactive
30 | FQRVPNWVSIILTGYRGNTC | inactive
31 | TFCFLQVN | inactive
32 | TLWMQILDAKYRSCSLRLRR | inactive
33 | FISSRLFTALLSRCNFHNRF | inactive
34 | YRRELAKSHLYMSIWRNRLP | inactive
35 | GSVTEGFVGLG | inactive
36 | YMLIKYGSL | 0.449 ± 0.35
37 | LKLTHD | inactive
38 | LLLVWRLKVSGGLDSNRTGV | 1.05 ± 0.13
39 | GDLSS | inactive
40 | GKGPNCMGASFLNGAHWSGI | inactive
41 | KVRQARGILASEGIGQETVG | 1.33 ± 0.14
42 | SFNITAWMMFMNVIQGYSI | 2.38 ± 0.059
43 | FCKLYINQYIYHDSVVVIVG | 2.41 ± 0.06
44 | TTMNVTFVPANLWCKSSHEA | inactive
45 | WWSYQGRLVGCGYMRTDNAP | inactive
46 | EDHCSLFKLSAFTAYTGLAL | inactive
47 | GPMWQLAVTCACSDNRMWTK | 0.053 ± 0.51
48 | VLRETLR | inactive

Row | Substance | amyloid nucleation score
49 | AMILVRVYGVKRVWAYLLVW | inactive
50 | YSMQVICISCVLRIDIGDVA | 0.89 ± 0.16
51 | FGVFVWEVVVGNMLLPHMVN | inactive
52 | ANCSWWSWESMNCCYIGWIF | 1.54 ± 0.071
53 | FLRRGCLFRQT | inactive
54 | PTLILWDFCCLVLVEAFYGC | inactive
55 | SNWKGEISIHEGMLGCT | inactive
56 | VFGET | inactive
57 | CVTRDDLCYW | inactive
58 | LLYYSSINYFLLLGFCSEEL | 1.51 ± 0.065
59 | QRLIRMSFSMAHMTSNFVMV | inactive
60 | TNFSRYEDFVLLFCPILYAF | inactive
61 | ALIYNATGLTYF | inactive
62 | AYSSQSTCTFCASIFSDSKI | 2.68 ± 0.077
63 | GKYKFSLF | inactive
64 | RFYNDW | inactive
65 | LGPVIS | -0.46 ± 1.7
66 | SREWSKSVVCTYLTMRGRLS | inactive
67 | WDNLCGTAFHAVN | inactive
68 | VSIHCGRVYDWEGGFGERVN | inactive
69 | SLNRWLSKYYLHTA | inactive
70 | SQKEGNKDRPVCVSGNSSCS | inactive
71 | SICIRFF | inactive
72 | CPCDTGVKQVTILEQGWVVM | 0.963 ± 0.14

Row | Substance | amyloid nucleation score
73 | TIGGNWGHWVVVIFV | 0.064 ± 0.96
74 | AMLLGFLGCGCKLHACCDY | inactive
75 | NYFYGYQACVVHGISFTMGQ | 0.956 ± 0.19
76 | LQYRSL | inactive
77 | FYVLNMNDLTSGLDMHVKS | inactive
78 | LILAQVLWFGFETGGKLETM | inactive
79 | DSWHFFCFIMVCIVKYWFFA | inactive
80 | VGIKTFGESGMYQVCSQVSC | inactive
81 | RWTLYSLSTYYQLCF | 0.685 ± 0.12
82 | TLCNFKCVYTGSLKIFHRYM | 1.91 ± 0.094
83 | NLTYNTSYAVVDVLRITCNF | 2.56 ± 0.065
84 | IICIYKIPKFTTRKLILRVY | inactive
85 | LFRDKDVDVVSSN | inactive
86 | LYAINLWLAVFYRLQQFMDV | inactive
87 | WNRTEDMR | inactive
88 | RSNLRLGSRDKPAIQL | inactive
89 | GIRYQRFVRRVFHDYWR | inactive
90 | RQNPGLGFLNFFLMV | 0.258 ± 0.35
91 | TVERILC | inactive
92 | MTSMLVTMMPCWVMRFVVWE | inactive
93 | LFCVPWVVISPHHSIHRIWV | inactive
94 | RSTQRTLPQ | inactive
95 | CTHVLRNWGIKNGP | inactive
96 | VDMRSDDLIMQFWQLLSDDV | inactive

Row | Substance | amyloid nucleation score
97 | AVRVEVLGLWYHLKCCWCFL | -0.755 ± 1.9
98 | YWMNERLTSSKYDAGR | inactive
99 | RVVLHITGLLPSSKKGVRGE | 0.433 ± 0.25
100 | KGRFVLLDTTAQLNI | inactive
101 | HEVLVVIRNLFDFVVFCVLQ | inactive
102 | NFIALSLFKLVCSAEICWLN | 0.617 ± 0.39
103 | VFISLVLSDLRSFARVVLGG | inactive
104 | EIQSVMLYIASTFSILYLRH | inactive
105 | IGGVAGQRGSIA | inactive
106 | LCISKKVMNFSNASHGGQQC | inactive
107 | TFKARSLILSLKLYANMDH | inactive
108 | YLICTRPILSLASLVS | inactive
109 | SSSAFCGVAIRALIAGGKGY | inactive
110 | MLLDTLCNHLRVYKYVRGDG | inactive
111 | RGLWLEQRAVNNYVGR | -0.291 ± 0.46
112 | ARATALAVFCIGTDYGSIES | -0.319 ± 0.37
113 | VCEQYFGRCNLRNKFCIWTL | inactive
114 | WKEWLGMGLLVSNAGHKQGG | inactive
115 | HRIVSFYRNSWVPSIFVYED | inactive
116 | LQAQMYCLTTLWSWFGRVSR | inactive
117 | LACLIHS | inactive
